Changes are numbered by the printed parent chain. In names and notes the source's numbering stands. Read-outs that look alike come from different tables or passages of the source.
B1: LIGHT-1 (ligand)
chain: DGPAGSWEQLIQERRSHEVNPAAHLTGANSSLTGSGGPLLWETQLGLAFLRGLSYHDGALVVTKAGYYYIYSKVQLGGMGCPLGLASTITHGLYKRTPRYPEELELLVSQQSPCGRATSSSRVWQDSSFLGGVVHLEAGEKVVVRVLDERLVRLLDGTRSYFGAFMV
notes: Printed mutations: V152M, W198Q, R228L; Soluble protein carries an N-terminal His tag
B2: LIGHT-2 (ligand)
chain: B1 chain with M79V, R116S
notes: Printed mutations: R189S, W198Q, R228L; Soluble protein carries an N-terminal His tag
B3: human HVEM extracellular domain fused with an Fc fragment at the C-terminus (Fc fusion, UniProt Q92956 39-202, looked up)
chain: LPSCKEDEYPVGSECCPKCSPGYRVKEACGELTGTVCEPCPPGTYIAHLNGLSKCLQCQMCDPAMGLRASRNCSRTENAVCGCSPGHFCIVQDGDHCAACRAYATSSPGQRVQKGGTESQDTLCQNCPPGTFSPNGTLEECQHQTKCSWLVTKAGAGTSSSHWV
notes: extracellular domain; Bought; also called hHVEM; not shown: Fc fragment at the C-terminus

Experiments:
[1] = biological target: T1, mouse LTβR extracellular domain fused with an Fc fragment at the C-terminus (mouse, UniProt P50284 31-223); assay: ELISA on coated target-Fc
T1 construct: extracellular domain; Bought; also called mLTβR; not shown: Fc fragment at the C-terminus
T1 sequence (P50284 31-223): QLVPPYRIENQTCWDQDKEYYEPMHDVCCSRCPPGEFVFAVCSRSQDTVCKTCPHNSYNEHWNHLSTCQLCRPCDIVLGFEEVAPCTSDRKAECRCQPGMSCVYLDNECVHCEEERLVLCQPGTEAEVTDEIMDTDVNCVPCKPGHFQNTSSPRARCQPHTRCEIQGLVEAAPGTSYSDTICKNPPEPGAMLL
Method in brief: (§1)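 Plates coated with target protein at 1 μg/ml, blocked with 2% BSA-PBS; His-tagged LIGHT muteins added in serial dilution from 200 ng/ml, 1 h. Bound mutein detected with anti-His antibody plus HRP secondary, TMB read-out at 450 nm; EC50 from dose-response curves.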

[2] = biological target: T2, human LTβR extracellular domain fused with an Fc fragment at the C-terminus (human, UniProt P36941 31-227); assay: ELISA on coated target-Fc
T2 construct: extracellular domain; Bought; also called hLTβR; not shown: Fc fragment at the C-terminus
T2 sequence (P36941 31-227): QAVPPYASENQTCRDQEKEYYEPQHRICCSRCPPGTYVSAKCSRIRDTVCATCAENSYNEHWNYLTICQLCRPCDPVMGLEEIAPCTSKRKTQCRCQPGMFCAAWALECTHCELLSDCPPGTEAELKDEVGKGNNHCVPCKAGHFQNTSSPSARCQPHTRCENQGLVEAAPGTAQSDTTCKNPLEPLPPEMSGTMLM
Method in brief: as §1

[3] = biological target: B3; assay: ELISA on coated target-Fc, Table 5-1
Procedure: (§2) Nunc MaxiSorp 96-well plates (Thermofisher) were coated with target proteins (1 μg/ml), and then blocked with 2% BSA-PBS buffer for one hour. Serial dilutions of the LIGHT muteins were added with a maximum concentration of 200 ng/ml. The plates were incubated for one hour, washed four times with PBST, and then incubated with mouse anti-His tag antibody (#105327, Sino Biological) for 1 hour. The plates were further incubated with HRP-conjugated goat anti-mouse secondary antibody (#SSA006, Sino Biological) before being washed three times with PBST and treated with TMB substrate (#34029, ThermoFisher). The plates were read at 450 nm on a SpectraMax M5 microplate reader (Molecule Devices). The ELISA results were analyzed using GraphPad Prism 9.0 software and the EC50s (half maximal effective concentration) were summarized in Table 5-1 and Table 5-2.

[4] = biological target: T3, mouse HVEM extracellular domain fused with an Fc fragment at the C-terminus (mouse, UniProt Q80WM9 39-206, limits assumed); assay: phage ELISA
T3 construct: extracellular domain; Bought; also called mHVEM; not shown: Fc fragment at the C-terminus
T3 sequence (looked up): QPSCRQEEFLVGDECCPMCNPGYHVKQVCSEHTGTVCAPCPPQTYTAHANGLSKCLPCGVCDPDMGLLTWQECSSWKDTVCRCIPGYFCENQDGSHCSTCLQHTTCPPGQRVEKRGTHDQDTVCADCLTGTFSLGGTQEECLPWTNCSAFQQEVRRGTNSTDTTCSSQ
Method in brief: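 Supernatants from fourth-round clones rescued with helper phage were applied to plates coated with 1 μg/ml target for 1 h at room temperature. Bound phage detected with HRP anti-M13 and TMB at OD450; clones were called positive when the target/BSA ratio was >3.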

[5] = biological target: T1, mouse LTβR extracellular domain fused …; assay: ELISA on coated target-Fc; remark: listed apart in the source
Procedure: as §2

[6] = biological target: T2, human LTβR extracellular domain fused …; assay: ELISA on coated target-Fc; remark: listed apart in the source
Procedure: as §2

LIGHT (74-240) = biological target: T4, LIGHT (74-240) (human, UniProt O43557 74-240); assay: ELISA on coated target-Fc
T4 construct: Soluble protein carries an N-terminal His tag; also called wild-type human LIGHT; LIGHT (74-240) (wt)
Method in brief: as §1

| Binder | EC50 [1] [µg/mL] | EC50 [2] [µg/mL] | binding result [3] | binding result [4] | EC50 [5] [nM] | EC50 [6] [nM] | binding result (LIGHT (74-240)) |
| --- | --- | --- | --- | --- | --- | --- | --- |
| B1 | 0.0605 | 0.0493 | no binding | no binding | 0.8 | 0.262 | – |
| B2 | – | 0.0762 | no binding | no binding | 2.06 | 0.328 | – |
| B3 | – | – | – | – | – | – | binds |
